Laboratory results: patent publication US20200317768A1 (published 2020)
Positions count from the first letter of the chain named.

Assays:
Assay in all cases: SPR; KD of SG1 / KD of variant;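 further: relative to parent M103205H795-SG1 carrying the SG1 human heavy chain constant region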
[1] = biological target: T1, cynomolgus monkey FcγRIIa1 extracellular domain, His-tagged (cynomolgus monkey)
T1 construct: also called cyno FcγRIIa1; cynoFcgRIIa1
T1 chain: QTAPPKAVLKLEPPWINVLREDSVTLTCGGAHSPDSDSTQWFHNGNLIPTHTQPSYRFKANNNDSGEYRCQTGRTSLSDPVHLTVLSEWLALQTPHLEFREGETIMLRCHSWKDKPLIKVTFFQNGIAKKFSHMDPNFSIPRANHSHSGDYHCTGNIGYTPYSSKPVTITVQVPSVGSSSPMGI

[2] = biological target: T2, cynomolgus monkey FcγRIIa2 extracellular domain, His-tagged (cynomolgus monkey)
T2 construct: also called cyno FcγRIIa2; cynoFcgRIIa2
T2 chain: T1 chain with P95T, T121A, I127K, A128S, K130N, D135N, R142Q

[3] = biological target: T3, cynomolgus monkey FcγRIIa3 extracellular domain, His-tagged (cynomolgus monkey)
T3 construct: also called cyno FcγRIIa3; cynoFcgRIIa3
T3 chain: T1 chain with P95T, T121A, A128S, H133P, D135N

[4] = biological target: T4, cynomolgus monkey FcγRIIb extracellular domain, His-tagged (cynomolgus monkey)
T4 construct: also called cyno FcγRIIb; cynoFcγRIIb
T4 chain: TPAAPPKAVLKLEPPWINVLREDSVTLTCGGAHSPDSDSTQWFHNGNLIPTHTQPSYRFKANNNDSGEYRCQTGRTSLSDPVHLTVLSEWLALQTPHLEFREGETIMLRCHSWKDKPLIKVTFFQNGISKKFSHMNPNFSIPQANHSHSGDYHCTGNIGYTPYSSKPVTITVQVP

[5] = biological target: T5, cynomolgus monkey FcγRIIIaS extracellular domain, His-tagged (cynomolgus monkey, UniProt Q8SPW2 21-206 at identity 1.00))
T5 construct: also called cyno FcγRIIIaS; cynoFcγRIIIaS
T5 chain: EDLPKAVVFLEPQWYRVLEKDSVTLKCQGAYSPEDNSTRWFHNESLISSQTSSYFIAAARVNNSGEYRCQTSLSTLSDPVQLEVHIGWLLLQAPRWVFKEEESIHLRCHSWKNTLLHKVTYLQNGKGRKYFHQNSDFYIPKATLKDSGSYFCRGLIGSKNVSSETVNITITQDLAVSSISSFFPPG

[6] = biological target: T6, human FcγRIIaH extracellular domain, His-tagged (human, UniProt P12318 34-217)
T6 construct: also called human FcγRIIa (type H); FcgRIIaH
T6 sequence: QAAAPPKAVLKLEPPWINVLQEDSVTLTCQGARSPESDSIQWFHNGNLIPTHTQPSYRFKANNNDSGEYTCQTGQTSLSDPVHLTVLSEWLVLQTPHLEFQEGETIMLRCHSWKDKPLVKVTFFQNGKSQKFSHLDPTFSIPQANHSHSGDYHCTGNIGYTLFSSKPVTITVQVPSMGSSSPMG

[7] = biological target: T7, human FcγRIIaR extracellular domain, His-tagged (human, UniProt P12318 34-217)
T7 construct: also called human FcγRIIa (type R); FcgRIIaR
T7 chain: T6 sequence with H134R

[8] = biological target: T8, human FcγRIIb extracellular domain, His-tagged (human, UniProt P31994 43-217)
T8 construct: also called FcgRIIb (human)
T8 sequence: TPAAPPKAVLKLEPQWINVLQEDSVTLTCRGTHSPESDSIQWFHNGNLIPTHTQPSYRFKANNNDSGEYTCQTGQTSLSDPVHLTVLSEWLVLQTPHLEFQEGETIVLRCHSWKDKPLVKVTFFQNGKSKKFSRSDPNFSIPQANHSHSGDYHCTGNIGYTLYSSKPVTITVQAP

[9] = biological target: T9, human FcγRIIIaV extracellular domain, His-tagged (human, UniProt P08637 17-208)
T9 construct: also called FcgRIIIaV
T9 sequence (P08637 17-208 F176V): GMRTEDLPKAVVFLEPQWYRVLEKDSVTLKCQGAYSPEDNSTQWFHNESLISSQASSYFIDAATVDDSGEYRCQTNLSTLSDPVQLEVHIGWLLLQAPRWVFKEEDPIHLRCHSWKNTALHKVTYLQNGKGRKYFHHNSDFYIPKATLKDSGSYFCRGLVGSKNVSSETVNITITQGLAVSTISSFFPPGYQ

B1: M103205H795-MY196/M103202L889-SK1 (antibody, human IgG1, kappa)
heavy: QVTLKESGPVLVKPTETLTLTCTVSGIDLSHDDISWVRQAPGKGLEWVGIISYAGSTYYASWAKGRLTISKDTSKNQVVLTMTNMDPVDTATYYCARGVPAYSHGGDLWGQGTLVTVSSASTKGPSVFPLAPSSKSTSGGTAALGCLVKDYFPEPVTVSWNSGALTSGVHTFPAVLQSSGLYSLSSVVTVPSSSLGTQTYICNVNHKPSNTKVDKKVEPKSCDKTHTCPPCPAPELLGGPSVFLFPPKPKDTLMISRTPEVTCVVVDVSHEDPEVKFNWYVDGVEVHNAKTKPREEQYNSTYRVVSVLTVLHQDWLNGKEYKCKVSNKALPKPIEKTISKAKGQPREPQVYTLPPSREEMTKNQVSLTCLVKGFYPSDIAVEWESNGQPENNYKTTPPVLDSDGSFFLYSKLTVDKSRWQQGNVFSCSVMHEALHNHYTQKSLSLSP
light: DIVMTQSPATLSLSPGERATLSCTSSQSVYHANWLSWFQQKPGQPPKLLIYWASTLAYGVPSRFSGSGSGTDFTLTISSLQPEDAATYYCAGGYGGGRYAFGQGTKVEIKRTVAAPSVFIFPPSDEQLKSGTASVVCLLNNFYPREAKVQWKVDNALQSGNSQESVTEQDSKDSTYSLSSTLTLSKADYEKHKVYACEVTHQGLSSPVTKSFNRGEC
notes: Substitution put into M103205H795-SG1
In the case of B1, the “KD fold (SG1 = 1)” value [1] is reported as 1.3 fold, the “KD fold (SG1 = 1)” value [2] is reported as 1.7 fold and the “KD fold (SG1 = 1)” value [3] is reported as 0.7 fold. For the same binder, the “KD fold (SG1 = 1)” value [4] was 0.8 fold, the “KD fold (SG1 = 1)” value [5] was 0.6 fold and the “KD fold (SG1 = 1)” value [6] was 1.4 fold. The “KD fold (SG1 = 1)” value [7] was 0.8 fold, the “KD fold (SG1 = 1)” value [8] was 0.7 fold and the “KD fold (SG1 = 1)” value [9] was 0.37 fold.
